The source of these data is PMC8561398, “The Histidine Ammonia Lyase of Trypanosoma cruzi Is Involved in Acidocalcisome Alkalinization and Is Essential for Survival under Starvation Conditions” (mBio, 2021).

Substrate in the data set: N[C@@H](Cc1c[nH]cn1)C(=O)O
The data set can be described thus: purified protein. In kind it is biochemical, Trypanosoma cruzi. The following applies: 100 mM Tris-HCl pH 8.8, 0.1 mM MnCl2, 1.7 mM reduced glutathione, 30°C, L-histidine 0.2 to 5 mM, four catalytic sites considered.

B1: 6×His-HAL (rHAL; histidine ammonia lyase) (Trypanosoma cruzi strain CL Brener) (protein)
chain: MRVILDGCSLTPDVLYALGYEKGATIEISDEAVARITAARAVIDKIVNDRQTVYGINTGFGKFESTIIPPHQLEELQLNLIRSHSACVGEPLTPERARMMLALRVNVLCKGHSGIRLETVQKYVKAFNAGVVPYIPEQGTVGASGDLGPLSHLALGMLGEGLLATLNNKKFRDAGSVLRELGVEPITLAAKEGLALINGTQFISALGAEAVVRARKIARLADVALAMSHEALRATNSTLNPDIHRVRPHKGQQLVAQRLRALLHSEEYPSMINESHVNCGRVQDAYSIRCAPQVHGISNEVIEWVYGILTTELNCATDNPLVFPDGVKKVVSGGNFHGEYPAKALDMLAIGVHELGNISERRIERLNNPTLSRLPAFLVKNGGLNSGFMIAHCTAAALVSENKVYCHPASADSISTSAAQEDHVSMGGFSARKAIKVVENVERIIAIELLGACQGIDLLRPLRTTEPMEKVWSLVRSVSPPWEEDRVINTDIDNVTKLLRSGAVWKTVKPYVPEEARFLGVLTVKKPFELKSKM
notes: four catalytic sites considered; Q4E133 used for alignment; locus tag from YC6
With B1, the kcat (usually the number of substrate molecules converted per active site and unit of time at saturation) lay within 9.027 to 11.7 s⁻¹.
